# Assay results taken from US20040265880A1, “Genomic and proteomic approaches for the development of cell culture medium” (Sigma-Aldrich Co., priority 2003, published 2004).
# B1: oncostatin M (protein, UniProt P13725 26-221, looked up)
# Oncostatin-M: AAIGSCSKEYRVLLGQLQKQTDLMQDTSRLLDPYIRIQGLDVPKLREHCRERPGAFPSEETLRGLGRRGFLQTLNATLGCVLHRLADLEQRLPKAQDLERSGLNIEDLEKLQMARPNILGLRNNIYCMAQLLDNSDTAEPTKAGRGASQPPTPTPASDAFQRKLEGCRFLHGYHRFMHSVGRVFSKWGESPNRSRR
# notes: ligand of oncostatin M receptor
# Tested on: HEK-293 cells
# Assay: Resazurin high throughput proliferation assay, HEK-293
# Assay type: cell-based, human
# Settings: versus base medium with 1% FBS; each ligand at three concentrations
# Description: Resazurin is a metabolic dye which is converted to a fluorescent product. The greater the amount of the fluorescent product that is generated, the more metabolism, which directly correlates with cell number.
# In this assay, resazurin was added to HEK-293 cells plated in each well of a 24-well assay plate containing a test medium containing one of the 16 ligands corresponding to the positive growth factors/cytokines and incubated at 37° C. After a 30 minute incubation, the plate was analyzed on a standard fluorescence plate reader. A higher RFU value from the plate reader translates to a higher cell density in the wells.
# Briefly, the 16 ligands corresponding to positive growth factor/cytokine receptors were tested in the resazurin assay, each ligand at three different concentrations. […]
# Cells were plated in each well of a 24-well tissue culture treated plate containing 1 ml of a base medium. […] After sufficient incubation time to convert some of the resazurin, the fluorescence was measured on a HTS 7000 Plus BioAssay Reader (Perkin-Elmer, Boston, Mass.). Readings were taken once a day until the culture was confluent (typically about 4 days). A plate with base medium only (no cells) was used as a blank and subtracted from the RFU reading to establish the final RFU values.
molecule,measurement,value
B1,"effect on HEK-293 proliferation (RFU, resazurin)",significant effect
